T1: His-tagged human VEGFR-3 (residues 30-326) (human, UniProt P35916 30-326)
T1 construct: Vascular endothelial growth factor receptor 3 (VEGFR-3), human, residues 30-326 (extracellular Ig domains 1-3); The primers fit P30 to I326; the reverse primer has no stop codon, so vector residues and a second His tag may follow at the C-terminus (my surmise); also called Wild-type VEGFR-3; extracellular domains 1, 2 and 3
T1 sequence (looked up): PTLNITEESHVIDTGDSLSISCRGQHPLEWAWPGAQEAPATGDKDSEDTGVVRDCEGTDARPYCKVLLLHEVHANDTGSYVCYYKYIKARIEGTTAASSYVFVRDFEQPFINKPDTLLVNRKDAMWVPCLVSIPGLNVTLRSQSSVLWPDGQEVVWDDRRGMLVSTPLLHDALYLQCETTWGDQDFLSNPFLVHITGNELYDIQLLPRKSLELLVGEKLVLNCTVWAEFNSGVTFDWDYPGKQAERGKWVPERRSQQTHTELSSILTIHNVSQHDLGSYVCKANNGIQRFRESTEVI

T2: His-tagged VEGFR-3 (residues 30-326) (human, UniProt P35916 30-326)
T2 construct: human VEGFR-3, residues 30-326 (extracellular domains 1, 2 and 3); Cloned in pET-28a; In the functional rows it stands for the VEGFR-3 of MDA-MB-231 cells; also called His-VEGFR-3; extracellular domains 1, 2, and 3; source: for SEC co-lysed with His-tagged VEGF-D cells and purified together on Ni-NTA
T2 sequence (looked up): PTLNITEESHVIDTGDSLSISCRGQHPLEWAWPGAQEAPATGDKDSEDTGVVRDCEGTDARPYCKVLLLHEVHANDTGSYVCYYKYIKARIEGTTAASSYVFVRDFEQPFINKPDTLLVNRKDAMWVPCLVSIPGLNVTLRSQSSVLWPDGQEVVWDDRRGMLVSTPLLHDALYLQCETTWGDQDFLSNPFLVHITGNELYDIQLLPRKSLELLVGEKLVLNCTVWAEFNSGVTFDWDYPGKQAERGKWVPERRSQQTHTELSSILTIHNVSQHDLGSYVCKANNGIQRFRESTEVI


What was measured:
[1] = biological target: T1, His-tagged human VEGFR-3 (residues …); assay: SPR; VEGFR-3 immobilised on a CM5 chip by amine coupling (2,300 response units); Biacore T100, 25°C; running buffer 50 mM HEPES (pH 7.7), 50 mM NaCl or 50 mM Tris-HCl (7.82), 50 mM NaCl; VEGF-D or mutant injected at 0.125, 0.25, 0.5, 1 uM, 10 ul/min; conditions: both partners purified
[2] = biological target: T2, His-tagged VEGFR-3 (residues 30-326); assay: SPR; VEGFR-3 immobilised on a CM5 chip by amine coupling (2,300 response units); VEGF-D or mutant injected at 0.125, 0.25, 0.5 and 1 uM, 10 ul/min; Biacore T100, 25 °C; 50 mM HEPES (pH 7.7), 50 mM NaCl or 50 mM Tris-HCl (7.82), 50 mM NaCl; conditions: both partners purified
[3] = biological target: T2, His-tagged VEGFR-3 (residues 30-326); assay: SEC; His-tagged VEGF-D and His-tagged VEGFR-3 cells co-lysed, purified together on Ni-NTA, incubated 24 h at 4 °C; Superdex 200 10/300 GL, 50 mM Tris-HCl (pH 7.82), 200 mM NaCl, 0.1% glycerol, sample 17 mg/ml, 0.4 ml/min; fractions by SDS-PAGE; conditions: partners not purified
[4] = biological target: T2, His-tagged VEGFR-3 (residues 30-326); assay: cell-based or functional assay
[5] = biological target: T2, His-tagged VEGFR-3 (residues 30-326); assay: pull-down; 50 ug GST-tagged VEGF-D or mutant on Glutathione Sepharose 4 Fast Flow beads, 50 ug His-VEGFR-3 in 1X PBS, on ice overnight; eluted with 30 mM glutathione; Western blot with anti-His and anti-GST; conditions: both partners purified

Row | Binder | Kd [1] | koff [1] | kon [1] | Kd [2] | also measured
1 | His-tagged wild-type human VEGF-D (residues 89-205) (ligand, UniProt O43915 89-205, looked up, Vascular endothelial growth factor D (VEGF-D), human, residues 89-205 (major mature form); Cloned in pET-28a; also called Wild-type VEGF-D; major form) FAATFYDIETLKVIDEEWQRTQCSPRETCVEVASELGKSTNTFFKPPCVNVFRCGGCCNEESLICMNTSTSYISKQLFEISVPLTSVPELVPVKVANHTGCKCLPTAPRHPYSIIRR | 268 nM | 0.00115 s⁻¹ | 4310 M⁻¹ s⁻¹ | – | –
2 | His-tagged VEGF-D (residues 89-205), wild type (ligand, human, UniProt O43915 89-205, looked up, human VEGF-D, residues 89-205 (major mature form); Cloned in pET-28a; also called wild-type VEGF-D; mature VEGF-D; source: for SEC co-lysed with His-tagged VEGFR-3 cells and purified together on Ni-NTA) FAATFYDIETLKVIDEEWQRTQCSPRETCVEVASELGKSTNTFFKPPCVNVFRCGGCCNEESLICMNTSTSYISKQLFEISVPLTSVPELVPVKVANHTGCKCLPTAPRHPYSIIRR | – | – | – | 270 nM | stoichiometry N [3]: 1; MTT cell viability of MDA-MB-231 cells, 0-600 ng VEGF-D, 24 h; EC50 [4]: 238 ng
3 | GST-tagged VEGF-D (residues 89-205) I102A (ligand, human, UniProt O43915 89-205, looked up, human VEGF-D, residues 89-205, I102A; Cloned in pGEX-4T-1) FAATFYDIETLKVADEEWQRTQCSPRETCVEVASELGKSTNTFFKPPCVNVFRCGGCCNEESLICMNTSTSYISKQLFEISVPLTSVPELVPVKVANHTGCKCLPTAPRHPYSIIRR | – | – | – | – | binding result [5]: binds
4 | GST-tagged VEGF-D (residues 89-205) E105A (ligand, human, UniProt O43915 89-205, looked up, human VEGF-D, residues 89-205, E105A; Cloned in pGEX-4T-1) FAATFYDIETLKVIDEAWQRTQCSPRETCVEVASELGKSTNTFFKPPCVNVFRCGGCCNEESLICMNTSTSYISKQLFEISVPLTSVPELVPVKVANHTGCKCLPTAPRHPYSIIRR | – | – | – | – | binding result [5]: binds
5 | His-tagged VEGF-D (residues 89-205) I102A/E105A (ligand, human, UniProt O43915 89-205, looked up, human VEGF-D, residues 89-205, I102A and E105A; also called double mutated form of VEGF-D; source: E. coli BL21 (DE3), purified) FAATFYDIETLKVADEAWQRTQCSPRETCVEVASELGKSTNTFFKPPCVNVFRCGGCCNEESLICMNTSTSYISKQLFEISVPLTSVPELVPVKVANHTGCKCLPTAPRHPYSIIRR | – | – | – | 960 nM | –
6 | His-tagged VEGF-D (residues 89-205) D103A/Q110A (ligand, human, UniProt O43915 89-205, looked up, Vascular endothelial growth factor D (VEGF-D), human, residues 89-205, double mutant D103A/Q110A; same limits as Dm1 (see its note on the primers); source: E. coli BL21 (DE3), purified) FAATFYDIETLKVIAEEWQRTACSPRETCVEVASELGKSTNTFFKPPCVNVFRCGGCCNEESLICMNTSTSYISKQLFEISVPLTSVPELVPVKVANHTGCKCLPTAPRHPYSIIRR | 533 nM | 0.00103 s⁻¹ | 1940 M⁻¹ s⁻¹ | – | –
7 | His-tagged VEGF-D (residues 89-205) D103A/Q110A (ligand, human, UniProt O43915 89-205, looked up, human VEGF-D, residues 89-205, D103A and Q110A; also called D103A/Q110A mutant; double mutated form of VEGF-D; source: E. coli BL21 (DE3), purified) FAATFYDIETLKVIAEEWQRTACSPRETCVEVASELGKSTNTFFKPPCVNVFRCGGCCNEESLICMNTSTSYISKQLFEISVPLTSVPELVPVKVANHTGCKCLPTAPRHPYSIIRR | – | – | – | 530 nM | –
8 | His-tagged VEGF-D (residues 89-205) I102A/E105A (ligand, human, UniProt O43915 89-205, looked up, Vascular endothelial growth factor D (VEGF-D), human, residues 89-205, double mutant I102A/E105A; same limits as Dm1 (see its note on the primers); source: E. coli BL21 (DE3), purified) FAATFYDIETLKVADEAWQRTQCSPRETCVEVASELGKSTNTFFKPPCVNVFRCGGCCNEESLICMNTSTSYISKQLFEISVPLTSVPELVPVKVANHTGCKCLPTAPRHPYSIIRR | 956 nM | 0.0015 s⁻¹ | 1570 M⁻¹ s⁻¹ | – | –

— article PMC11729338, “Molecular Characterization and Interaction between Human VEGF-D and VEGFR-3” (Journal of Microbiology and Biotechnology, 2024)
